Source: patent publication US12214021B2 (CHINA AGRICULTURAL UNIVERSITY, priority 2018, dated 2025)
Marks after values point to notes of the source that are not given here.

Key:
[1] = micro-CT microstructure of trabecular bone of distal femur of mice; assay type: in vivo; conditions: for BV/TV / TPF / Tb · N / Tb · Sp / Tb · Th: femoral ROI, Mean ± SD, n = 8
From the text: According to the micro-building theory, the strength of the trabecular bone depends not only on the BMD, but also on its three-dimensional structure. In pathology, bone damage should include both “quantitative” change and “qualitative” changes. Quantitative change is the decline of BMD, while qualitative change is the change of the microstructure of trabecular bone, such as trabecular number and thickness, trabecular connection, and so on. Trabecular bone plays a major role in the microstructure. Increasing the cross structure of each trabecular bone can increase the supporting strength of the bone, but has basically no effect on bone mineral density.
The distal femur is considered a sensitive site for detecting bone health due to high cancellous bone content and rapid bone turnover. Therefore, the inventors analyzed the microstructure of trabecular bone of the distal femur using micro-CT. […] Therefore, this study mainly analyzed the microstructure of the cancellous trabecular bone of the femur in each group. The three-dimensional structure image of the trabecular bone of the ROI region of the mouse femur obtained by micro-CT reconstruction is shown in FIG. 7A and the longitudinal section is shown in FIG. 7B.
In order to quantitatively analyze the structure of the trabecular bone, the spatial structure parameters of the trabecular bone of the ROI region shown in FIG. 7 were also measured. Trabecular bone structure parameters include the followings: Bone Volume Fraction (BV/TV), which is the ratio of the total volume of voxels representing the bone structure in the ROI to the total volume of all voxels in the region, and when the bone is unhealthy, the trabecular bone is lost and the BV/TV value decreases; trabecular thickness (Tb·Th), which is the average thickness of trabecular bone, and when the bone is unhealthy, the value of Tb·Th decreases, and in porous materials, Tb·Th can be understood as thickness of the pore wall; trabecular number (Tb·N), which is the number of intersections of bone tissue and non-bone tissue within a given length, and when the bone is unhealthy, the value of Tb·N decreases; trabecular separation (Tb·Sp), which is the average width of the medullary cavity between the trabecular bones. An increase in Tb·Sp indicates an increased bone resorption and possible bone loss. Tb. Sp can be understood as porosity. The trabecular pattern factor is used to evaluate the morphology of the trabecular bone. This parameter is determined by the surface area and volume of the trabecular bone, and is a parameter obtained through 3D simulation. The smaller the TPF value, the better the connectivity between trabecular bones. BV/TV, Tb·Th, Tb·N, and Tb·Sp are parameters that can be provided by both micro-CT and bone tissue morphometry. The TPF value is a parameter based on the analysis of the three-dimensional structure of the trabecular bone, can be obtained from micro-CT analysis, but cannot be provided by the traditional two-dimensional method.

[2] = tested on: VDR; assay: expression of VDR gene (mRNA) in MC3T3-E1 cells under LF stimulation; assay type: cell-based; conditions: FIG. 1
[3] = blood biochemical markers in mice after oral LF; assay type: in vivo; conditions: for 25-OH VD3 / Ca / P / PTH: blood, Mean ± SD, n = 8
From the text: Generally, the content of VD is reflected by measuring the content of 25-OH D3 in the serum. […] The contents of calcium and phosphorus in serum reflect the degree of absorption of calcium and phosphorus in the small intestine. […] However, oral administration of LF still has no effect on serum calcium and phosphorus content.

[4] = bone mineral density of the femur of mice; assay type: in vivo
From the text: The factors affecting bone mineral density mainly include bone mass factors and bone quality factors. Decreased bone mass is an important factor in the occurrence of common bone diseases, and bone mineral density (BMD) is an important indicator for quantifying bone mass in bone mineral metabolism. The BMD index is of great significance for the prediction of fracture risk, the early diagnosis of osteoporosis and the evaluation of intervention measures.

[5] = tested on: VDR; assay: Western blot detection of VDR expression in kidney, colon and bone tissue; assay type: in vivo, mice
From the text: The inventors further verified the expression of VDR in three major tissues, kidney, colon and bone using the Western blot method by extracting the tissue protein.

[6] = tested on: osteoblasts; assay: proliferation of osteoblasts promoted by LF (MTT method); assay type: cell-based; conditions: FIG. 4
Protocol: Based on transcriptome data, the inventors verified that LF can promote the high expression of VDR at both the gene and protein levels. In order to confirm the role of this pathway in the promotion of osteoblast proliferation and differentiation by LF, the inventors first designed a VDR siRNA to achieve the purpose of transiently silencing VDR genes. The principle of siRNA is the post-transcriptional gene silencing mechanism that blocks the expression of corresponding gene. 20 μM VDR siRNA was added to osteoblasts, the proliferation rate of osteoblasts promoted by LF was detected by MTT method, and the ALP activity of osteoblasts promoted by LF was detected by enzyme-linked immunoassay.
The inventors first confirmed that LF promotes the proliferation and differentiation of osteoblasts through the regulation of the VDR pathway using the osteoblast model. Since the osteogenic effect of VDR is mainly achieved by vitamin D, in order to simulate the normal physiological environment, the inventors treated osteoblasts with both 1 nM of […] (the active form of vitamin D) and LF, and then studied the proliferation and differentiation of osteoblasts.

[7] = tested on: VDR; assay: immunohistochemistry of VDR expression in mouse kidney, colon and bone tissue; assay type: in vivo, mice; conditions: for VDR-positive cell rate in the kidney: FIG. 9; for VDR positive cell rate in the colon (positive cells to total cells in each crypt): FIG. 11
From the text: The immunohistochemical technique was used to detect the expression of VDR in kidney tissues.

[8] = tested on: VDR; assay: VDR protein expression in cytoplasm and nucleus of osteoblasts after LF for different times; assay type: cell-based
Protocol: After verifying that LF promotes high expression of VDR at the transcription level, it is further verified at the protein level. VDR exists in the cytoplasm and nucleus, but plays a major role in the nucleus. The inventors stimulated osteoblasts for different times using LF to measure the expression of VDR in the cytoplasm and nucleus. […] In the nucleus, VDR expression began to increase at 1 hour after LF treatment, and reaches the maximum at 2-6 h.

[9] = tested on: VDR; assay: effect of inhibition of endocytosis (hypertonic, 4° C.) on VDR expression promoted by LF in MC3T3-E1 cells; assay type: cell-based; conditions: under the condition of inhibiting endocytosis (hypertonic, 4° C.), FIG. 18
Protocol: Studies have shown that LF can directly enter the cell and bind with DNA to regulate cell gene expression. Therefore, in order to study the effect of endocytosis, cells were stimulated with LF under culture conditions that inhibit endocytosis, and the inhibitory effect on the endocytosis of LF were detected firstly. […] Then, the promotion effect of LF on VDR was measured to analyze whether the inhibition of endocytosis affected the expression of VDR promoted by LF to determine the site of action of LF.

[10] = contents of calcium and phosphorus in urine of mice; assay type: in vivo; conditions: LF1000 group
Protocol: In order to reflect the reabsorption of calcium and phosphorus by the kidney, the contents of calcium and phosphorus in urine were measured. In the VD-deficient groups, the calcium content in the LF1000 group is reduced by 67% compared with the control group, and the phosphorus content in the LF1000 group is reduced by 72% compared with the control group; in the VD-normal groups, the calcium content in the LF1000 group is reduced by 80% compared with the control group, and the phosphorus content in the LF1000 group is reduced by 78% compared with the control group.

[11] = VD-normal oral-administered LF group
[12] = VD-deficient LF100-administered group as printed (second such column, c3)
[13] = VD-normal LF100-administered group as printed (second such column, c6)
[14] = osteoblasts, after LF treatment

B1: lactoferrin (protein, UniProt P02788 20-710, looked up)
Lactotransferrin: GRRRSVQWCAVSQPEATKCFQWQRNMRKVRGPPVSCIKRDSPIQCIQAIAENRADAVTLDGGFIYEAGLAPYKLRPVAAEVYGTERQPRTHYYAVAVVKKGGSFQLNELQGLKSCHTGLRRTAGWNVPIGTLRPFLNWTGPPEPIEAAVARFFSASCVPGADKGQFPNLCRLCAGTGENKCAFSSQEPYFSYSGAFKCLRDGAGDVAFIRESTVFEDLSDEAERDEYELLCPDNTRKPVDKFKDCHLARVPSHAVVARSVNGKEDAIWNLLRQAQEKFGKDKSPKFQLFGSPSGQKDLLFKDSAIGFSRVPPRIDSGLYLGSGYFTAIQNLRKSEEEVAARRARVVWCAVGEQELRKCNQWSGLSEGSVTCSSASTTEDCIALVLKGEADAMSLDGGYVYTAGKCGLVPVLAENYKSQQSSDPDPNCVDRPVEGYLAVAVVRRSDTSLTWNSVKGKKSCHTAVDRTAGWNIPMGLLFNQTGSCKFDEYFSQSCAPGSDPRSNLCALCIGDEQGENKCVPNSNERYYGYTGAFRCLAENAGDVAFVKDVTVLQNTDGNNNEAWAKDLKLADFALLCLDGKRKPVTEARSCHLAMAPNHAVVSRMDKVERLKQVLLHQQAKFGRNGSDCPDKFCLFQSETKNLLFNDNTECLARLHGKTTYEKYLGPQYVAGITNLKKCSTSPLLEACEFLRK
notes: natural glycoprotein with a molecular weight of 78 KDa in milk
For B1, the “trabecular bones and cavity in longitudinal section compared with the control group” value ([1]; VD-deficient LF-administered group, FIG. 7) was “obviously more trabecular bones and smaller cavity”, the “BV/TV of the trabecular bone compared with the VD-deficient control group and the VD-normal control group” value ([1]; VD-deficient groups, low-dose LF group) was “significantly higher” and the “trabecular structure parameters compared with the control group” value [1, 11] was “comparable to the control group, except for Tb·Th value”. For the same molecule, the BV/TV [1, 12] was 0.252 ± 0.029^b %, the TPF [1, 12] was 7.290 ± 2.128^ab mm^−1 and the “Tb · N” value [1, 12] was 5.374 ± 0.501^ab mm^−1. For the same molecule, the “Tb · Sp” value [1, 12] was 0.136 ± 0.017^b mm, the “Tb · Th” value [1, 12] was 0.054 ± 0.005^ab mm and the BV/TV [1, 13] was 0.28 ± 0.017^ab %. For the same molecule, the TPF [1, 13] was 5.599 ± 0.397^b mm^−1, the “Tb · N” value [1, 13] was 6.029 ± 0.586^a mm^−1 and the “Tb · Sp” value [1, 13] was 0.141 ± 0.020^b mm. The “Tb · Th” value [1, 13] was 0.057 ± 0.004^ab mm, the “VDR expression at mRNA levels” value [2] was “up to 30 fold” and the “25-OH VD3” value [3, 12] was 14.8 ± 2.39^a ng/mL. For the same molecule, the Ca [3, 12] was 1.6 ± 0.13^a mmol/L, the P [3, 12] was 2.33 ± 0.42^a mmol/L and the PTH [3, 12] was 93.69 ± 34.61^b pg/mL. For the same molecule, the “25-OH VD3” value [3, 13] was 27.61 ± 2.93^b ng/mL, the Ca [3, 13] was 2.25 ± 0.17^b mmol/L and the P [3, 13] was 2.26 ± 0.33^a mmol/L. For the same molecule, the PTH [3, 13] was 91.91 ± 13.10^b pg/mL, the “effect on PTH content” value ([3]; oral 1000 mg/kg BW LF in the VD-deficient group) was “reduce the PTH content” and the “effect on serum calcium and phosphorus content” value ([3]; oral administration of LF) was “no effect”. The “effect on the 25-OH D3 content in serum” value ([3]; oral administration of LF vs corresponding control groups) was “no significant effect”, the “bone mineral density of the femur, increase compared with the VD-deficient control group” value ([4]; VD-deficient LF100-administered group, 5 months oral, p<0.05) was 5.67% and the “effect on bone mineral density when VD is normal” value ([4]; oral administration, VD normal) was “further promote bone mineral density”. For the same molecule, the “VDR expression in the colon” value ([5]; FIG. 15) was “effectively promote the expression of VDR”, the “VDR expression in the femur, higher than that of the control group” value ([5]; VD deficiency, LF1000-administered group, FIG. 16) was 3 times and the “VDR expression in the kidney” value ([5]; VD deficiency, oral lactoferrin, FIG. 14) was “effectively promote the expression of VDR”. For the same molecule, the “VDR expression in the femur, higher than that of the VD normal control group” value ([5]; VD-normal oral-administered 100 mg LF/kg BW group, FIG. 16) was 2.35 times, the “effect on promoting the proliferation and differentiation of osteoblasts, compared with 1.25(OH)2D3” value [6] was “stronger effect” and the “VDR-positive cell rate in the kidney” value ([7]; VD-deficient LF100-administered group) was 13.8%. The “VDR positive cell rate in the femur” value ([7]; VD-deficient LF100-administered group, FIG. 13) was 75%, the “VDR-positive cell rate in the kidney” value ([7]; VD-deficient LF1000-administered group) was 17% and the “VDR positive cell rate in the colon (positive cells to total cells in each crypt)” value ([7]; VD-deficient LF-administered group) was “more than 70%”. For the same molecule, the “VDR-positive cell rate in the kidney” value ([7]; VD-normal LF100-administered group) was 16.3%, the “VDR-positive cell rate in the kidney” value ([7]; VD-normal LF1000-administered group) was 16.5% and the “VDR positive cell rate in the colon (positive cells to total cells in each crypt)” value [7, 11] was roughly 80%. The “time after which VDR expression in the cytoplasm began to normalize” value ([8]; osteoblasts treated with LF) was 12 h, the “time at which VDR expression in the cytoplasm reaches the maximum” value ([8]; osteoblasts treated with LF) was 4 h and the “VDR expression in the cytoplasm” value ([8]; osteoblasts treated with LF for two hours) was “significantly increased”. For the same molecule, the “time at which VDR expression in the nucleus began to increase” value [8, 14] was 1 h, the “time at which VDR expression in the nucleus reaches the maximum” value [8, 14] was 2 to 6 h and the “promotion effect of LF on the expression of VDR in the cytoplasm and nucleus” value [9] was “significantly inhibited”. The “calcium content in urine, reduction compared with the control group” value ([10]; VD-deficient groups) was 67%, the “phosphorus content in urine, reduction compared with the control group” value ([10]; VD-deficient groups) was 72% and the “calcium content in urine, reduction compared with the control group” value ([10]; VD-normal groups) was 80%. For the same molecule, the “phosphorus content in urine, reduction compared with the control group” value ([10]; VD-normal groups) was 78%.
